In IntAct's records for PubMed 7486703:

B1: Proto-oncogene tyrosine-protein kinase LCK (Mus musculus), P06240 (parent)
chain: MGCVCSSNPEDDWMENIDVCENCHYPIVPLDSKISLPIRNGSEVRDPLVTYEGSLPPASPLQDNLVIALHSYEPSHDGDLGFEKGEQLRILEQSGEWWKAQSLTTGQEGFIPFNFVAKANSLEPEPWFFKNLSRKDAERQLLAPGNTHGSFLIRESESTAGSFSLSVRDFDQNQGEVVKHYKIRNLDNGGFYISPRITFPGLHDLVRHYTNASDGLCTKLSRPCQTQKPQKPWWEDEWEVPRETLKLVERLGAGQFGEVWMGYYNGHTKVAVKSLKQGSMSPDAFLAEANLMKQLQHPRLVRLYAVVTQEPIYIITEYMENGSLVDFLKTPSGIKLNVNKLLDMAAQIAEGMAFIEEQNYIHRDLRAANILVSDTLSCKIADFGLARLIEDNEYTAREGAKFPIKWTAPEAINYGTFTIKSDVWSFGILLTEIVTHGRIPYPGMTNPEVIQNLERGYRMVRPDNCPEELYHLMMLCWKERPEDRPTFDYLRSVLDDFFTATEGQYQPQP

Variants of: B1
Details: with cd4_mouse Cd4, P06332
Chain of cd4_mouse Cd4, P06332 (P06332 whole entry): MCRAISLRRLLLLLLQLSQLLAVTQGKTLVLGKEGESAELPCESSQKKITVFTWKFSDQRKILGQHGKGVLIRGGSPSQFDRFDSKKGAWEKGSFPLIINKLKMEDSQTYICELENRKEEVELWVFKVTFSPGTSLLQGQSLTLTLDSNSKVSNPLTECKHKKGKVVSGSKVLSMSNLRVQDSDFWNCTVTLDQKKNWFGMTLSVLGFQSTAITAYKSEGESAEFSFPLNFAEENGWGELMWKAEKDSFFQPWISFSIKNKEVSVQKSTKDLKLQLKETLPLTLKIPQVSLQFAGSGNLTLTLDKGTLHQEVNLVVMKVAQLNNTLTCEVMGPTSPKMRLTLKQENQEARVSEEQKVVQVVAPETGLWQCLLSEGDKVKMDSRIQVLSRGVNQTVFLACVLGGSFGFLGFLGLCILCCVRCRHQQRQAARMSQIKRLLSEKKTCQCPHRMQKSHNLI

Variant	effect of a mutation on the interaction
C20A	decreasing interaction
